Molecular target: T1, Gαo[P170R]^Gly92-GFP (human, UniProt P09471-1 1-354, P170R)
T1 construct: Pathogenic de novo variant found in two patients; also called Gαo[P170R]-GFP; P170R mutant; source: N2a cells, transfected, in lysate; not shown: GFP, internal (after residue 92), kept
Assay: co-IP; N2a cells co-transfected with Gαo-GFP constructs and mRFP-Gβ1/mRFP-Gγ3 (1:1:1) or HA-RGS19 (1:1); cleared lysates (20 mM Tris-HCl pH 8.0, 1% Triton X-100, 10% glycerol in PBS) incubated with GST-tagged anti-GFP nanobody, then Glutathione Sepharose 4B beads overnight at 4 °C; Western blot for GFP, mRFP and/or HA; quantification normalized to the precipitated Gαo-GFP
Settings: partners not purified

T1 sequence (P09471 whole entry P170R): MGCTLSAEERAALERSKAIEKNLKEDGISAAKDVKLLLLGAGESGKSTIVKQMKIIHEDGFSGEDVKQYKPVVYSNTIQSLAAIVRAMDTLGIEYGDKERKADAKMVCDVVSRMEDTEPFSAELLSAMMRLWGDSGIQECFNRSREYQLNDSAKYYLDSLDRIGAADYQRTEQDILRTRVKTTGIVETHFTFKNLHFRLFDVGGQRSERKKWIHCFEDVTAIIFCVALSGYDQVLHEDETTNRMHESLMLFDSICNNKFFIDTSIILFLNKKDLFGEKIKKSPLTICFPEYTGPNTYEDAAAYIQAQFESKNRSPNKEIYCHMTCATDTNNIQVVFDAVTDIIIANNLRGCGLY

fold reduction of co-precipitated RGS19 against wild-type Gαo-GFP: > 2 fold
B1: 3xHA-RGS19 (natural protein, UniProt P49795 1-217, looked up)
chain: MPTPHEAEKQITGPEEADRPPSMSSHDTASPAAPSRNPCCLCWCCCCSCSWNQERRRAWQASRESKLQPLPSCEVCATPSPEEVQSWAQSFDKLMHSPAGRSVFRAFLRTEYSEENMLFWLACEELKAEANQHVVDEKARLIYEDYVSILSPKEVSLDSRVREGINKKMQEPSAHTFDDAQLQIYTLMHRDSYPRFLSSPTYRALLLQGPSQSSSEA
notes: RGS19 (regulator of G-protein signaling 19); also called 3×HA-RGS19; RGS19 (tagged with 3 × HA); source: N2a cells, transfected, in lysate

— article PMC10605901, “Clinical Cases and the Molecular Profiling of a Novel Childhood Encephalopathy-Causing GNAO1 Mutation P170R” (Cells, 2023)
